Data as given in patent publication US20240010750A1 (Bayer, published 2024).
Positions count from the first letter of the chain named. Where two headings read alike, the source gives them in different places.

B1: TPP-14305 hIgG1 (antibody, V domains shown)
VH: EVQLLESGGGLVQPGGSLRLSCAASGFTFDDYAMSWVRQAPGKGLEWVSAIGTGGGTYYADSVKGRFTISRDNSKNTLYLQMNSLRAEDTAVYYCAREGYDSSGYYHLDYWGQGTLVTVSS
VL: QSVLTQPPSASGTPGQRVTISCTGSSSNIGATYDVHWYQQLPGTAPKLLIYSNNQRPSGVPDRFSGSKSGTSASLAISGLRSEDEADYYCWAWDDSLSGWVFGGGTKLTVLG
B2: TPP-14314 hIgG1 (antibody, V domains shown)
VH: B1 VH with G99Y, D109V
VL: QSVLTQPPSASGTPGQRVTISCTGSSSNIGATYDVHWYQQLPGTAPKLLIYSNNQRPSGVPDRFSGSKSGTSASLAISGLRSEDEADYYCAAWDVSLSGWVFGGGTKLTVL
notes: Human IgG1 lambda
B3: TPP-17051 hIgG1 (antibody, V domains shown)
VH: B1 VH with D31S, G56S
VL: B1 VL with W91A, D95W
notes: Germline variant of TPP-14308
B4: TPP-17041 hIgG1 (antibody, V domains shown)
VH: B1 VH with D30S
VL: B1 VL with W91A, D95W
notes: Germline variant of TPP-14308
B5: TPP-14308 hIgG1 (antibody, V domains shown)
VH: B1 VH
VL: B1 VL with W91A, D95W
notes: starting point of the germlining

How the values were obtained:
human alpha2-Antiplasmin [1] = target: T1, human alpha2-Antiplasmin (human, UniProt P08697 40-491); test: ELISA, coated antigen, 2nd exp.
T1 construct: Bought (antibodies online, ABIN2544306); also called human A2AP; a2AP
T1 sequence: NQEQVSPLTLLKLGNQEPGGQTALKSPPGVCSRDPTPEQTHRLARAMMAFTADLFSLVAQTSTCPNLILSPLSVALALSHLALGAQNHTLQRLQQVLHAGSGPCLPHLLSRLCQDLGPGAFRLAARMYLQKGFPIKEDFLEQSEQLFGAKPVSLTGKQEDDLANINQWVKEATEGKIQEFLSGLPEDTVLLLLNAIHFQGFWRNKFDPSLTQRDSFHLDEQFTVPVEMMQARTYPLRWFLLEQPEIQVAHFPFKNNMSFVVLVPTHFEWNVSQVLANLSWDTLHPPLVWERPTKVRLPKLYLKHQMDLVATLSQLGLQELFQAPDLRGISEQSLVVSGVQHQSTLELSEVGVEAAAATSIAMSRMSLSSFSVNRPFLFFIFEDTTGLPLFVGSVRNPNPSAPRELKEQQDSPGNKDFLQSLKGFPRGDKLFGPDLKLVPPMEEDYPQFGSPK
Experimental: (§1) A standard ELISA format was used for analyzing the binding affinity of Fabs of this invention to human and rabbit alpha-2-Antiplasmin, respectively. Antigens were coated to black 384 well Maxisorp microtiter plates (Nunc; catalogue number 460518), diluted to a concentration of 1 μg/ml in 1× Coating Buffer (Candor Bioscience; catalogue number 121125). Plates were incubated overnight at 4° C. After overnight incubation, plates were washed 2× with 50 μl/well using PBS+0.05% Tween 20. Following this, 50 μl/well of blocking buffer (Smart Block; Candor Bioscience; catalogue number 113500) was added and the plates were incubated for 1 hour at room temperature. Afterwards, plates were washed for 3× using […] PBS+0.05% Tween 20 buffer. Fabs of this invention were added at different concentrations in a final volume of 30 μl/well. Plates were incubated for 1 hour at room temperature. Following this incubation step, plates were washed for 3× using 50 μl/well of a PBS+0.05% Tween 20 buffer. For the detection of bound Fabs and full-length antibodies, the anti-Human Lambda Light Chains (Bound and Free)—Peroxidase antibody (Sigma; catalogue number A5175) was diluted by the factor of 1:10.000 in 10% Blocking Buffer. 30 μl/well of this diluted detection antibody was added and plates are incubated for 1 hour at room temperature. Following this incubation step, plates were washed for 3× using 50 μl/well of a PBS+0.05% Tween 20 buffer. As substrate, a mixture of 30 μl/well of 1:1000 diluted Amplex red (Invitrogen; catalogue number 12222; stock solution 10 mM in DMSO) and 1:10.000 of Hydrogen peroxide (Merck; catalogue number 107209; 30% stock solution) was added and the plates incubated for minutes in the dark.
(§2) For measurement, the Infinite f500 reader (Tecan) was used. Measurement mode: Fluorescence; Top reading; Ex 535 nm; Em 590 nm.
(§3) According to the methods described in Example 3 and Example 4, antibodies TPP-14323, TPP-14318, TPP-14314, TPP-14313, TPP-14308, TPP-14305, TPP-14303, TPP-14298, and TPP-14293 were tested for their ability to bind to and to block the activity of human alpha2-Antiplasmin in a dose-dependent manner. For each antibody, one dose response curve from two to three independent experiments performed in quadruplicate is shown as example in FIG. 7.1 to FIG. 7.18. (see Table 3.3)

human Plasmin = human Plasmin (human, UniProt P00747 97-580; P00747 581-810, limits assumed); test: cell-based or functional assay
human Plasmin, sequence (P00747 97-580 limits assumed, chain 1 of 2): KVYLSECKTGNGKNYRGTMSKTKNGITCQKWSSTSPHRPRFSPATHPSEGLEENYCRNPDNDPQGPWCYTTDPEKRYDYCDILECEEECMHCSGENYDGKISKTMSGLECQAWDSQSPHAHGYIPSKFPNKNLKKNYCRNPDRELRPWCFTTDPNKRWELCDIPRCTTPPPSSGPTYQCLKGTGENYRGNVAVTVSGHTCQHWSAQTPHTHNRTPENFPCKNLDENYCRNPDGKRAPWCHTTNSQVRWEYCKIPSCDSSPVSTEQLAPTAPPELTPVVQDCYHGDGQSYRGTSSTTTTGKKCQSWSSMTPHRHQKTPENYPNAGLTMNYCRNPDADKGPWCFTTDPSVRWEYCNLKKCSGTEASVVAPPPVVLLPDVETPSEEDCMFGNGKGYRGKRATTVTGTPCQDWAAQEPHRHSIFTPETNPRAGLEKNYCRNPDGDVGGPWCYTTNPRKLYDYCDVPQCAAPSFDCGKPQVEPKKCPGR
human Plasmin, sequence (P00747 581-810 limits assumed, chain 2 of 2): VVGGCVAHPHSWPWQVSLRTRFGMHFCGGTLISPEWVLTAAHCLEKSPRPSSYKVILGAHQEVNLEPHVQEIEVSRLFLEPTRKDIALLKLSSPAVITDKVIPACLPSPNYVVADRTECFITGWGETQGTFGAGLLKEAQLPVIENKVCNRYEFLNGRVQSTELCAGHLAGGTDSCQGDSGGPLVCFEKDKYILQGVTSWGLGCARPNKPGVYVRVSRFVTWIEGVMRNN

human alpha2-Antiplasmin [2] = target: T1, human alpha2-Antiplasmin; test: ELISA, coated antigen, 1st exp.
Experimental: as §1, §2, §3

human alpha2-Antiplasmin [3] = target: T1, human alpha2-Antiplasmin; test: cell-based or functional assay
human alpha2-Antiplasmin [4] = target: T1, human alpha2-Antiplasmin; test: ELISA, coated antigen, 3rd exp.
Experimental: as §1, §2, §3

human alpha2-Antiplasmin [5] = target: T1, human alpha2-Antiplasmin; test: cell-based or functional assay; remark: listed apart in the source
human alpha2-Antiplasmin [6] = target: T1, human alpha2-Antiplasmin; test: ELISA (Example 3), human alpha2-Antiplasmin coated, RFU
Experimental: as §1, with “As substrate, a mixture of 30 μl/well of 1:1000 diluted Amplex red (Invitrogen; catalogue number 12222; stock solution 10 mM in DMSO) and 1:10.000 of Hydrogen peroxide (Merck; catalogue number 107209; 30% stock solution) was added and the plates incubated for minutes in the dark.” left out
as §2
According to the method described in Example 3, these 12 antibodies were tested for ability to bind human and rabbit alpha2-Antiplasmin in a dose-dependent manner. Data generated were analyzed using the GraphPadPrism software. The binding activities of the antibodies were calculated as EC50 values. […]

human alpha2-Antiplasmin [7] = target: T1, human alpha2-Antiplasmin; test: cell-based or functional assay; remark: listed apart in the source
human alpha2-Antiplasmin [8] = target: T1, human alpha2-Antiplasmin; test: ELISA, coated antigen, quantified unpurified antibody, 1st exp.
[9] = target: T2, cynomolgus alpha2-Antiplasmin (cynomolgus (Macaca fascicularis), UniProt P08697 28-491 (human entry)); test: SPR Biacore T200, antibody captured on protein G chip, A2AP as analyte, 25 C
T2 construct: Made in house in the same way as the rabbit protein; also called cynomolgus A2AP; Macaca fascicularis A2AP
T2 chain: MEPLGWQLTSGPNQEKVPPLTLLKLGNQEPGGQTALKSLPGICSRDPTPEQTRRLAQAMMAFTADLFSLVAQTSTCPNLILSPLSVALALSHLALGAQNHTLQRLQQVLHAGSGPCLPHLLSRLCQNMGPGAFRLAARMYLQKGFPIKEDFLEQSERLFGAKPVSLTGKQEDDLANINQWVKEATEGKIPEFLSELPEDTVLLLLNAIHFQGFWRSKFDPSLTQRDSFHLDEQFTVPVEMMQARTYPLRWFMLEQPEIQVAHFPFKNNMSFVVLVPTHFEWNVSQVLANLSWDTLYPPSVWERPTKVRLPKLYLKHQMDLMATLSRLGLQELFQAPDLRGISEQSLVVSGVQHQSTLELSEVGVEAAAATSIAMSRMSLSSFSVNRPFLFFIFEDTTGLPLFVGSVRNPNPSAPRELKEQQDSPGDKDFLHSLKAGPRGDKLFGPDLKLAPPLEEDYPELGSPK
Experimental: (§4) Binding assays were performed on a Biacore T200 instrument at 25° C. with a protein G sensor chip and assay buffer HBS-EP+. Antibodies were captured to ˜150 RU and analytes were used at concentrations between 1.56 and 200 nM for full kinetics. As interaction partner, alpha2-Antiplasmin from human, cynomolgus and rabbit was used. Regeneration was performed with glycine-HCl pH 1.5. Kinetic parameters were derived by fitting experimental sensorgrams to a 1:1 Langmuir binding model.

[10] = target: T3, rabbit alpha2-Antiplasmin (rabbit (Oryctolagus cuniculus)); test: as above
T3 construct: Made in house in HEK293 cells, purified by Ni-IMAC and SEC (a His tag is implied but not described); also called rabbit A2AP; Oryctolagus cuniculus A2AP
T3 chain: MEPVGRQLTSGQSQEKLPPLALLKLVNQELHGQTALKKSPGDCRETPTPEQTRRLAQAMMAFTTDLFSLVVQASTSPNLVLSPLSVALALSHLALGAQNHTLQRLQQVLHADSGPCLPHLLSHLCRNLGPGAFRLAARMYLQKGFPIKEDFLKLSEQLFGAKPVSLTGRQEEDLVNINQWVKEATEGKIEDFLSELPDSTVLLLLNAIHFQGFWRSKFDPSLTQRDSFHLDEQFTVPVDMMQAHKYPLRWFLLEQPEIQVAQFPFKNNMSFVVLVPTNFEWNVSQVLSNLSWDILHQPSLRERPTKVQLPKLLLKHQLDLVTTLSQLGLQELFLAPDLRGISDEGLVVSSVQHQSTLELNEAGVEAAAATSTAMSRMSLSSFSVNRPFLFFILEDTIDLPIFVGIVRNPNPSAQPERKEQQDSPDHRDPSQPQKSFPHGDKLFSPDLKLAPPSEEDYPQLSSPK
Experimental: as §4

human alpha2-Antiplasmin [11] = target: T1, human alpha2-Antiplasmin; test: as above
Experimental: as §4

human alpha2-Antiplasmin [12] = target: T1, human alpha2-Antiplasmin; test: ELISA, coated antigen, quantified unpurified antibody, 2nd exp.
human alpha2-Antiplasmin [13] = target: T1, human alpha2-Antiplasmin; test: ELISA, coated antigen, quantified unpurified antibody, 3rd exp.
Experimental: as §1, §2

human alpha2-Antiplasmin [14] = target: T1, human alpha2-Antiplasmin; test: cell-based or functional assay; remark: listed apart in the source
human alpha2-Antiplasmin [15] = target: T1, human alpha2-Antiplasmin; test: cell-based or functional assay; remark: listed apart in the source
human alpha2-Antiplasmin [16] = target: T1, human alpha2-Antiplasmin; test: cell-based or functional assay; remark: listed apart in the source

Binder | EC50 (human alpha2-Antiplasmin [1]) [nM] | IC50 [M], inhibition of plasmin proteolytic activity (human Plasmin) [M] | EC50 (human alpha2-Antiplasmin [2]) [nM] | function blocking activity [IC50 M], 1st exp. (human alpha2-Antiplasmin [3]) [nM] | function blocking activity [IC50 M], 2nd exp. (human alpha2-Antiplasmin [3]) [nM] | function blocking activity [IC50 M], 3rd exp. (human alpha2-Antiplasmin [3]) [nM] | EC50 (human alpha2-Antiplasmin [4]) [nM] | IC50, A2AP function blocking assay (Example 10) (human alpha2-Antiplasmin [7]) [nM] | EC50 (human alpha2-Antiplasmin [8]) [nM] | Kd [9] [nM] | Kd [10] [nM] | Kd (human alpha2-Antiplasmin [11]) [nM] | EC50 (human alpha2-Antiplasmin [12]) [nM] | function blocking activity [IC50 M], 1st exp. (human alpha2-Antiplasmin [14]) [nM] | function blocking activity [IC50 M], 2nd exp. (human alpha2-Antiplasmin [14]) [nM] | also measured
B1 | 16 | > 2e-06 | 15 | 64 | 69 | 66 | 16 |  |  |  |  |  |  |  |  | EC50 (read off the curve); function blocking assay (Example 4), RFU of plasmin substrate cleavage (human alpha2-Antiplasmin [5]): ~60 nM
B2 | 82 | > 2e-06 | 8.1 | 68 | 73 | 69 | 84 |  |  |  |  |  |  |  |  | EC50 (read off the curve) (human alpha2-Antiplasmin [6]): ~8 nM
B3 |  | > 1e-05 |  |  |  |  |  | 0.33 | 0.11 | 13 | 17 | 18 | 0.16 | 0.33 | 0.44 | EC50 (human alpha2-Antiplasmin [13]): 0.22 nM
B4 |  | > 1e-05 |  |  |  |  |  | 0.64 | 0.19 | 7.6 | 18 | 11 | 0.23 | 0.56 | 0.69 | EC50 (read off the curve); function blocking assay (Example 4), RFU of plasmin substrate cleavage (human alpha2-Antiplasmin [15]): ~0.5 nM
B5 | 61 | > 5e-06 | 5.7 | 2.4 | 30 | 24 | 60 |  |  | 3.1 | 7.8 | 3.9 |  |  |  | EC50 (read off the curve); function blocking assay (Example 4), RFU of plasmin substrate cleavage; comparator curve [same curve in 8.4, D00008 8.6, 8.8, D00009 8.10, 8.12] (human alpha2-Antiplasmin [15]): ~2 nM; EC50 (read off the curve); function blocking assay (Example 4), RFU of plasmin substrate cleavage (human alpha2-Antiplasmin [16]): ~2 nM
